Laboratory results reported in publication PMC9177699, “Dynamic interplay between the periplasmic chaperone SurA and the BAM complex in outer membrane protein folding” (Communications Biology, 2022).

T1: SurA-∆P2 (E. coli, UniProt P0ABZ6 21-428, removing residues 281–389)
T1 construct: gene numbering including the signal peptide; source: E. coli BL21(DE3), purified (HisTrap with on-column 6 M Gdn-HCl wash, TEV cleavage, second HisTrap); not shown: His6, N-terminal, cleaved
T1 sequence: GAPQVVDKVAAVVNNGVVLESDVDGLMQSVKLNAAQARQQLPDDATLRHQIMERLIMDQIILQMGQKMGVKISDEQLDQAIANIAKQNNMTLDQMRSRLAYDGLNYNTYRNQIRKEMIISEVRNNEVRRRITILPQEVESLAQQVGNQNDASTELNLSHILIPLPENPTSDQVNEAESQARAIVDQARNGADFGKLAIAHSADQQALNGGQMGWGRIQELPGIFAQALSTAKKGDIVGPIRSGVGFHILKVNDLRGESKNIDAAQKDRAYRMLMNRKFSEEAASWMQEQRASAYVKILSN

T2: SurA-∆P1 (E. coli, UniProt P0ABZ6 21-428, removing residues 172–280)
T2 construct: gene numbering including the signal peptide; source: E. coli BL21(DE3), purified (HisTrap with on-column 6 M Gdn-HCl wash, TEV cleavage, second HisTrap); not shown: His6, N-terminal, cleaved
T2 sequence: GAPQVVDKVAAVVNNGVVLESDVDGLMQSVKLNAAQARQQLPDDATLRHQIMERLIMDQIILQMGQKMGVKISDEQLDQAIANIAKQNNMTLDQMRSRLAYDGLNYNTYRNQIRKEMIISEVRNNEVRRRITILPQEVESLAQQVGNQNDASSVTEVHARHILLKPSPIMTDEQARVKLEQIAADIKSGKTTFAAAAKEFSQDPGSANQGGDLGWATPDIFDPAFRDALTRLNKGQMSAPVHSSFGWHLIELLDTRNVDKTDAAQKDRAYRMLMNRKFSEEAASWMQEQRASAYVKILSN

T3: SurA-WT (E. coli, UniProt P0ABZ6 21-428)
T3 construct: gene numbering including the signal peptide; also called wild-type SurA; source: E. coli BL21(DE3), purified (HisTrap with on-column 6 M Gdn-HCl wash, TEV cleavage, second HisTrap); not shown: His6, N-terminal, cleaved
T3 sequence: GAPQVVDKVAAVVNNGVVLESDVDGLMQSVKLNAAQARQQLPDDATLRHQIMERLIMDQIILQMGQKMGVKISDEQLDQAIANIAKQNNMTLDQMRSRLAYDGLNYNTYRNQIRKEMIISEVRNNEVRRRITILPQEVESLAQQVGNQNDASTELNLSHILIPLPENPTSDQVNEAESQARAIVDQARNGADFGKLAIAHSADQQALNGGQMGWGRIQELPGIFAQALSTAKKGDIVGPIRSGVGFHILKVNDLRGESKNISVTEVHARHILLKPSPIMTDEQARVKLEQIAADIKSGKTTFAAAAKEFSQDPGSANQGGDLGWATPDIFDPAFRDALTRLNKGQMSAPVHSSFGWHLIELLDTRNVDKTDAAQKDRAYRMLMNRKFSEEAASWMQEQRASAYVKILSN

T4: SurA-core (E. coli, UniProt P0ABZ6 21-428, removing residues 172–389)
T4 construct: gene numbering including the signal peptide; source: E. coli BL21(DE3), purified (HisTrap with on-column 6 M Gdn-HCl wash, TEV cleavage, second HisTrap); not shown: His6, N-terminal, cleaved
T4 sequence: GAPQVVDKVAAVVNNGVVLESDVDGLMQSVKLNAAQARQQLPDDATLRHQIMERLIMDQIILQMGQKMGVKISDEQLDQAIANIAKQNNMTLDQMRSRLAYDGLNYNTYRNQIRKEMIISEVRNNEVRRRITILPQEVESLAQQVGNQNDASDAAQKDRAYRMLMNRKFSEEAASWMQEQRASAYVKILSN


Tests used:
[1] = biological target: T5, BamB (as a subunit of the purified BAM complex) (E. coli, UniProt P77774 20-392); experiment: HDX-MS; differential HDX; 8 µM BAM with 10 µM SurA-WT or SurA-core, or 8 µM SurA-WT with 10 µM BAM; 0.02% DDM, 10 mM potassium phosphate, pH 8.0; labelling at 4 °C for 0.5, 2, 30, 120 min; details: both partners purified
T5 construct: BamB, E. coli, accessory lipoprotein of BAM, expressed from pJH114; Stood in the assays within the whole BAM complex, not alone

[2] = biological target: β-barrel assembly machinery (BAM) complex, BamABCDE (E. coli, UniProt P0A940 21-810; P77774 20-392; P0A903 25-344; P0AC02 20-245; P0A937 20-113); experiment: cell-based or functional assay
SurA-∆P2 = biological target: T1, SurA-∆P2; experiment: MST; 100 nM Alexa Fluor 488-labelled tOmpA, SurA or SurA domain deletion variant titrated 100 µM-3 nM, 0.8 M urea, 20 mM Tris-HCl, pH 8.0, 25 °C; Hill binding model; apparent Kd; details: both partners purified
SurA-∆P1 = biological target: T2, SurA-∆P1; experiment: as above; details: both partners purified
SurA-WT = biological target: T3, SurA-WT; experiment: as above; details: both partners purified
SurA-core = biological target: T4, SurA-core; experiment: as above; details: both partners purified

Binder | binding result [1] | rate of BAM-catalysed folding of tOmpA into proteoliposomes (cold SDS–PAGE), with SurA-core against SurA-WT [2] | Kd (SurA-∆P2) | Kd (SurA-∆P1) | Kd (SurA-WT) | Kd (SurA-core)
SurA-core (SurA 21-428 without residues 172-389, His-tag cleaved) (domain or fragment, E. coli, UniProt P0ABZ6 21-428, looked up, numbers are the gene numbering (including the signal peptide); A G of the TEV site probably stays after cleavage (surmised); source: E. coli BL21(DE3), purified (HisTrap, on-column denaturation with 6 M Gdn-HCl, TEV cleavage, second HisTrap); not shown: His6, N-terminal, cleaved) APQVVDKVAAVVNNGVVLESDVDGLMQSVKLNAAQARQQLPDDATLRHQIMERLIMDQIILQMGQKMGVKISDEQLDQAIANIAKQNNMTLDQMRSRLAYDGLNYNTYRNQIRKEMIISEVRNNEVRRRITILPQEVESLAQQVGNQNDASDAAQKDRAYRMLMNRKFSEEAASWMQEQRASAYVKILSN | binds | ~3 fold |  |  |  | 
Alexa Fluor 488-labelled tOmpA (domain or fragment, Alexa Fluor 488 (C5 maleimide) on the added cysteine, N-terminal Met and the Cys residue added immediately following it; unfolded: kept in 8 M urea and diluted to 0.8 M urea for the assay; also called Cys-tOmpA) MCAPKDNTWYTGAKLGWSQYHDTGFINNNGPTHENQLGAGAFGGYQVNPYVGFEMGYDWLGRMPYKGSVENGAYKAQGVQLTAKLGYPITDDLDIYTRLGGMVWRADTKSNVYGKNHDTGVSPVFAGGVEYAITPEIATRLEYQWTNNIGDAHTIGTRPDNGMLSLGVSYRFG |  |  | 8.8 µM | 14.5 µM | 3.7 µM | 10.2 µM
